Experimental data from US20180148492A1 (CHILDREN S HOSPITAL MEDICAL CENTER, published 2018).

T1: integrin α4 overexpressed in HEK 293T cells (UniProt P13612 34-1032, limits assumed)
T1 construct: Tested in cell lysates; also called α4 integrin; pITGA4
T1 sequence (looked up): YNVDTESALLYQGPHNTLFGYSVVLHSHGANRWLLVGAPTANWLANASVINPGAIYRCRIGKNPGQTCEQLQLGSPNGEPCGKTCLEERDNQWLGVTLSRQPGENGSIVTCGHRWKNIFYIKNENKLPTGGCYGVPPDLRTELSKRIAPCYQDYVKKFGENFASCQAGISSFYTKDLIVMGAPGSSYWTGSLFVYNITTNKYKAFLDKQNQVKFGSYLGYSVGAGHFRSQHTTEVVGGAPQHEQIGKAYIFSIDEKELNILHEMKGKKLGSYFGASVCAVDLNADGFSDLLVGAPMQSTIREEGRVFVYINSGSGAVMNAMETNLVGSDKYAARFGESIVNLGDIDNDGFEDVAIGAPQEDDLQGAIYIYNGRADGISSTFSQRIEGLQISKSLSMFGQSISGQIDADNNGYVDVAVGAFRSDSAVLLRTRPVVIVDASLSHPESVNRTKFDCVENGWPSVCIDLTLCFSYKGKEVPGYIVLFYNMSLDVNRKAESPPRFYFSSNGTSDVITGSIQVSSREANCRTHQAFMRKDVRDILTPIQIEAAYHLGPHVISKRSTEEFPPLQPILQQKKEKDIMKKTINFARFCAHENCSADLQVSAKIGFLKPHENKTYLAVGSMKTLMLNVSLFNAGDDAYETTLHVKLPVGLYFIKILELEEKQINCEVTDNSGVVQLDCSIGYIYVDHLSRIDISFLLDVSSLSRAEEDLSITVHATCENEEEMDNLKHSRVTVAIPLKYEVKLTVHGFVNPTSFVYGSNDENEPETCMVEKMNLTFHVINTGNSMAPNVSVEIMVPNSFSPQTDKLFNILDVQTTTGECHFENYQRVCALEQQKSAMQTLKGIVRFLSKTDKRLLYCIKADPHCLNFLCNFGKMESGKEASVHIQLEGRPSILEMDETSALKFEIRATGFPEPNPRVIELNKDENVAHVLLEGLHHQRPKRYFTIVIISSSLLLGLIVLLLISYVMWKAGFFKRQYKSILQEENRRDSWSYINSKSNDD


Columns and labels:
[1] = target: T1, integrin α4 overexpressed in HEK 293T …; test: co-immunoprecipitation from HEK 293T cells overexpressing the proteins
Procedure: Cells (approximately 2×10⁶) were washed one time with PBS and incubated in IP buffer (50 mM Tris-HCl [pH 7.4], 150 mM NaCl, 2 mM EDTA, 1 mM dithiothreitol, 1% Nonidet P-40 [NP-40]; or 10 mM imidazole, 100 mM NaCl, 1 mM MgCl₂, 5 mM EDTA, 1% Triton X-100, pH 7.4) containing 1× cOmplete protease inhibitor cocktail (Roche) for 10 min on ice. Cells were scraped from the plate and rotated at 4° C. for 10 min. Lysates were cleared by centrifugation at 20,000×g at 4° C. for 10 min. An equal amount of protein was added to total 500 microliters of IP buffer plus protease inhibitors (Roche). Antibodies (2 micrograms α-HA (Covance), α-myc (Covance), α-p120 (BD Transduction Laboratories), α-ITGA4 (Cell Signaling Technology, Inc.), mouse IgG1 control (AbD Serotec), or normal rabbit IgG control (R & D Systems)) were added and rotated overnight at 4° C. Subsequently, 20 microliters of protein A/G agarose beads (Santa Cruz Biotechnology, Inc.) were added per sample. After 2 h of rotation (4° C.), beads were washed 5 times in IP buffer containing protease inhibitors. 2× Laemmli buffer was added to the immunoprecipitates or total cell lysates saved prior to IP (input).

[2] = target: the molecule itself; test: cell-based or functional assay

Binder	binding result [1]	phosphorylation of ERK upon calcium restoration [2] [fold]
CDH1 (E-cadherin) overexpressed in HEK 293T cells (receptor, UniProt P12830 155-882, looked up, Tested in cell lysates; also called pCDH1) DWVIPPISCPENEKGPFPKNLVQIKSNKDKEGKVFYSITGQGADTPPVGVFIIERETGWLKVTEPLDRERIATYTLFSHAVSSNGNAVEDPMEILITVTDQNDNKPEFTQEVFKGSVMEGALPGTSVMEVTATDADDDVNTYNAAIAYTILSQDPELPDKNMFTINRNTGVISVVTTGLDRESFPTYTLVVQAADLQGEGLSTTATAVITVTDTNDNPPIFNPTTYKGQVPENEANVVITTLKVTDADAPNTPAWEAVYTILNDDGGQFVVTTNPVNNDGILKTAKGLDFEAKQQYILHVAVTNVVPFEVSLTTSTATVTVDVLDVNEAPIFVPPEKRVEVSEDFGVGQEITSYTAQEPDTFMEQKITYRIWRDTANWLEINPDTGAISTRAELDREDFEHVKNSTYTALIIATDNGSPVATGTGTLLLILSDVNDNAPIPEPRTIFFCERNPKPQVINIIDADLPPNTSPFTAELTHGASANWTIQYNDPTQESIILKPKMALEVGDYKINLKLMDNQNKDQVTTLEVSVCDCEGAAGVCRKAQPVEAGLQIPAILGILGGILALLILILLLLLFLRRRAVVKEPLLPPEDDTRDNVYYYDEEGGGEEDQDFDLSQLHRGLDARPEVTRNDVAPTLMSVPRYLPRPANPDEIGNFIDENLKAADTDPTAPPYDSLLVFDYEGSGSEAASLSSLNSSESDKDQDYDYLNEWGNRFKKLADMYGGGEDD	no binding	–
human CDH26 (cadherin 26) expressed on transduced cells (receptor) DSVQQETDDLTKQTKEKIYQPLRRSKRRWVITTLELEEEDPGPFPKLIGELFNNMSYNMSLMYLISGPGVDEYPEIGLFSLEDHENGRIYVHRPVDREMTPSFTVYFDVVERSTGKIVDTSLIFNIRISDVNDHAPQFPEKEFNITVQENQSAGQPIFQMLAVDLDEENTPNSQVLYFLISQTPLLKESGFRVDRLSGEIRLSGCLDYETAPQFTLLIRARDCGEPSLSSTTTVHVDVQEGNNHRPAFTQENYKVQIPEGRASQGVLRLLVQDRDSPFTSAWRAKFNILHGNEEGHFDISTDPETNEGILNVIKPLDYETRPAQSLIIVVENEERLVFCERGKLQPPRKAAASATVSVQVTDANDPPAFHPQSFIVNKEEGARPGTLLGTFNAMDPDSQIRYELVHDPANWVSVDKNSGVVITVEPIDRESPHVNNSFYVIIIHAVDDGFPPQTATGTLMLFLSDINDNVPTLRPRSRYMEVCESAVHEPLHIEAEDPDLEPFSDPFTFELDNTWGNAEDTWKLGRNWGQSVELLTLRSLPRGNYLVPLFIGDKQGLSQKQTVHVRICPCASGLTCVELADAEVGLHVGALFPVCAAFVALAVALLFLLRCYFVLEPKRHGCSVSNDEGHQTLVMYNAESKGTSAQTWSDVEGQRPALLICTAAAGPTQGVKDLEEVPPSAASQSAQARCALGSWGYGKPFEPRSVKNIHSTPAYPDATMHRQLLAPVEGRMAETLNQKLHVANVLEDDPGYLPHVYSEEGECGGAPSLSSLASLEQELQPDLLDSLGSKATPFEEIYSESGVPS	–	11.6
